The record followed here is a protein production outcome set (Wang et al. 2014).

The nature of the series: label from the status in PepcDB records.
“MMLAVEDVLSELAGEERNERGLPPGFRFHPTDEELITFYLASKIFHGGLSGIHISEVDLNRCEPWELPEMAKMGEREWYFYSLRDRKYPTGLRTNRATTAGYWKATGKDKEVFSGGGGQLVGMKKTLVFYKGRAPRGLKTKWVMHEYRLENDHSHRHTCKEEWVICRVFNKTGDRKNVGLIHNQISYLHNHSLSTTHHHHHEALPLLIEPSNKTLTNFPSLLYDDPHQNYNNNNFLHGSSGHNIDELKALINPVVSQLNGIIFPSGNNNNDEDDFDFNLGVKTEQSSNGNEIDVRDYLENPLFQEASYGLLGFSSSPGPLHMLLDSPCPLGFQL”: the protein production entry is “failed”. “SKCLERFGPFYLLYKDRLSFVNADASELTFHPDTAVLRLKAPHDALISLLGQSPKSILDTTMGLASDSLVMAAVRNRVTALESQEVIFQVVSRGLATYQTDNKQIEKAMRSIKAVKSDSLTFLKSQTDHSFDIIYADPMFSETIKESENLNAIKPLANGSRLTREWLDEAKRVGRERIIIKAHFRDSVFEELGFERQVRP”: the protein production result was “failed”. With “MSRPSVNRSGEMEIFAKAVELGGFSAAARHYRMTPSAVSKLVLRLEERLGVRLVNRSTRKLQLTPEGHAFYERTVRILADIDEAERSASAGESPVGRVRLNVNASFGTHVLMPLVPEFRAHFPAVSLDIVMTDAVVDLMEARADVAIRAGPLKSSTLIARKLGATRMMIVAAPSYIERYGMPSSLEELKGHERLGFCYARAVDGWPLRTDGETVVLPASGAVQVSDGEGLRQLALAGAGLARLAEFTVREDVSARRLVPVLEDLNPGDLEEVHAVYLGQGGALPARVRAVLDFLARHARITPGQDAGRRRTSPIPAPA”, the protein production result is on record as “failed”.

As for “MIDFNDIPQPEAQDRQARREEIRAALLARLESVLFALLPAGKKRGGKFLIGDVLGSPGDSLEVVLDGEKAGLWTDRATGDGGDIFGLIAAHLGADVHADFPRVLDVAADLVGRAHPAPPRKARSAPPVDGLGPATAKWDYFDPAGKLIAVVYRYDPPGRKKEFRPWDARRRKMAPPEPRPLYNQPGLVAADTVVLVEGEKCAQALIDIGVAATTAMHGANAPVDKTDWSPLAGKAVLIWPDRDKPGWEYAMAAAQAALAVGAMSCDVLLPPDDRSEGWDAADAVAEGFDVAGFLAFGPRMSIKPASVTPTQEPSVWATDDALALAFTSRYAEDWRYCAAWGKWLVWDGRRWQADETLLVHHLIRAICREAALKADSHRLAAKLAASSTVGGVERLARTDRRHASTSEEWDADLFALNTPSGIVDLKTGRIKPHDRRERMTKLATATPHGDCARWRAFLEDITGGDTALQAYLQRMVGYCLTGATSAHALFFLYGTGANGKSVFVNTLATILGDYATSAPMDTFMEARGDRHPTDLAGLRGARFVSSIETEQGRRWNESKVKAITGGDKVSARFMRQDFFEYLPQFKLVIAGNHKPAIRNVDEAMKRRLHLIPFTVTIPPEKRDGQLTEKLLAERDGILAWAVEGCLAWQRDGLNPPASVVSATEEYFDEEDAIGDFLDEEAQRFEQARVAVADVFQRWQEWATRRGEYVGTSRWLAQQLANRGFGRARLHGGVKGLAGLSLKPRDYGTRLPYRDD”, the protein production entry is “failed”. “MKTKNKILPEQEEEKTFQYRTYGKGELALLYLPNILQQSAVDRFNEWIEAAPGLKERLLATGMNPRARYYTPAQVRLIIEVLQEP”: the protein production entry is “failed”. “MTEDTADSGTGGRGPTRRHLVRRALALGGALAVAPFPAGPAKAVPPPRHPHRTLRHGSPERAGLLPDHLRGLVTDAESFLGPSPTHPWYAGAVLLAGRGDTVALHQPIGTAVRYSAYDAKTDTGVEFPAERQIPMATDTVFDLASVSKLFTSLLAVQQLERGALELEARVASYLPDFAGAGKQDVTIRQLLTHTSGFRAWLPLYKAPSRAEKLRLIWNEAPLSPPGTKYLYSDLNLISLQLVLEEITGHPLDALLRDEITAPLGLRSTRYNPPAAWKPRIAATEDARPPWSGLDRGLVWGEVHDENAFGFGGVAGHAGVFSCAWDLAVLGRTLLNGGTYGHTRILAPESVELLFTDFNTAFPGDEHGLGFELYQHWYMGAMATPRTAGHTGFTGTSLVLDPTTDSFLIVLGNSVHPVRTWRSGSAPRAAAGNHLARAVQVRPARGRTSWFSGMATAASATLTLPELDTAGTADTAETTGTADSTTADSGGRLRCALWWDTEPRSDTLFLEASADDGASWQPVPFTTACDGEEAREHPTGSVTGWSGRVWHRLHADLPRARRLTLRWRYTTDRLYVGRGAYVDAVRVESGGRVLFDEARPTDAARIEAAGWTPSEN”: the protein production entry is “failed”. Next, “MSDFEKQLWKAADKLRKNIDAAEYKHIVLGLIFLRYISDAFEELYEKLQQGEGEYAGADPEDRDEYKAENVFFVPAISRWPYLQSEAKKPDIGKSVDNAMDAIEKENPLLRGVLPKVFARGNLDPTNLGGLIDLVSNVALGDAKSRSADVLGHVFEYFLGEFALAEGKKGGQFYTPRSVVELLVEMLEPYNGRVFDPCCGSGGMFVQSEKFVADHQGKINDISIYGQESNQTTWRLAKMNLAIRSIDSSQVKWNNEGSFLNDVHKDLKADYVIANPPFNDSDWSGDLLRKDGRWKYGVPPAGNANYAWIQHFLYHLGPSGQAGFVLAKGSLTSKSSGEGDIRKELVEARLVDCIVNLPPKLFLNTQIPASLWFLSRNKANGKHRNRTDEILFIDARNMGHLINRRTREFSPEDIQQIAGTYHKWRNPEGNYEDVKGFCNSAPIERVRELGYVLTPGRYVGLPDDEDNFDFNERFSALKAEFEEQLKEEERLNLRIAENLKKVKPA”: “failed”; “MLSANQIKFLRSLRERKYRLREQAFAVEGPKLVGEMLPFYRCRMLVGTAAMLRAVSTPHDAEVVELPESFDFKRISTQTTPQPLMAVFDLPAEPEPVVEGLTLLLDGVQDPGNVGTILRTADWFGIRHVWLGTGSADVFSPKVVQASMGALARVQPTPLKNTVDTLAYFRRQGIPVYGAFLDGQSLYEAPLPNFTEPAILVLGSEGRGISPEVAAEITDRLTIPASGLSVKGHTESLNVAIATAILCSEWRRRS”: “not failed”.

For “MKIVIIGGFLGGGKTTVLNHLLAESLKESLKPAVIMNEFGKMSVDGALVSEDIPLSELTEGCICCAMKADVSEQLHQLYLKEQPDIVFIECSGIAEPVSVLDACLTPILAPFTTITHMIGVIDASMYKHIKSFPKDIQGLFYEQLAYCSVLFVNKIDSADVETTSKLLKDLEVINPEADIQVGMHGSVTLPISVRQMTATSDNKHESLHKTINHQFVQSPVTCTKAEFIKRLACLPSHIYRLKGFMTFEDTTHTYLIQFTQGQYELTPVAFSKKVPEYLVLIGKGISKEDYQCLEQLEHHHHHH”, the protein production result is listed as “failed”. Consider “MAKKTGTKEPAPKKEKKKKERRRGKGEGTIVPHASGLFMAQISLGRDPLTGKRIRPTIYDDSEVGVQKKLRKLLIKKDLGKSVKPNKTLVGEWIRIWLDIYSKPNVGIGTWDGYDLNFTNHIENSFIARKTMSGLTTDDLQVYYNMKLLNGRKDGKGGLSTRFVKAIHTVISSAFDQAVTSGHLEKNPASGVRISNKRRPKIKIWNKEQMALYLKAIKKDRLYAAFVTDSKSGLRKSELLALRWSDIDFSTGLTKIERGWVRSPKGTLYLSDLKSENSERTLVFSTDLLKVLLEHKSRQDEEKKTAGKNYIDNGLVFCREDGSYINPSTFTRRHYDLTAKAKLPRISVHALRHSISTALLESGKVDLKQIQEMLGHKDISTTGNYYTDVLERMKQKTSELIDNLIQTEETPAQASLPAAQPSASDLAEEESVEAKNVIDFATRRNEKLFIASNGQKQKNREKAQKP”, for which the protein production result is listed as “failed”. Take “MRTLIILLLCTNTSFAIAQISPKAVEKNNQSVKTAGFFNDSDSLNKAIHLSDEAIALEPSYKLAYANKIKYLMALGQKEKALQTMLQMEKFSPDDPYYILGKGMMLEENAKKSLAMDAYKQAASLFKKRLKEKPTEADLMNYVFVLFLRDNKNYSLDEIEKEYPQIFSPAIRQHTKKLIDELSNKREDVIHEMLGGK”: the protein production entry is “failed”. Regarding “MSEALELLGQDIVARAPGVLGHSVAFGELTIVARAASVIDTLTFLRDDAACRFHQLIDLTGVDYPERAARFDVVYHLLSLVKNHRIRLKVSTDEDTPVPSVTPVFPVADWFEREAFDMYGIFFDGHPDLRRILTDYGFHGHPLRKDFPMTGYVEVRYDDELKRVVYEPVKITEFRAFDFLSPWEGAKYALPGDEKAQ”, the protein production entry is reported as “failed”.

Take “MEERSQLFLEQYLSSVSREVSEKYTSFSADYFCADEYNANVCADLILRGEKRASCSLEYWYSQKGELMPQVGHLQVVTNWDGKPICIIEITSVSKCQYNQVSEDFAASEGEGDKSLAWWQEAHRNFFSRECHELGIEFREDMLLVLEHFKVVYH”: the protein production entry was “not failed”. As for “MCSNNNTSSGSYGELQLHDESSGSCRKKQKKDKVRRRGPGVAELEKIRLQEEYKPPLSSSPSLPNIDHHHHTLFAPASSVYDLVMTSPNFSFPEKLASTLPVFPISPDATQNRSMGITPVQETGTTTSNPIAIDSPTSIPRHYPRFIPLGLQYEQQQQKLKDLDETMQWRSKKPFYSFIPSGDPSNDDQEQRPCDLFGSAADHGIDLNLKL”, the protein production entry is on record as “failed”. In the case of “MKQKRLTFLLLLISNLFCASAQKWYKPEIDLKVEELLSQMTVEEKLGYIGGIDWMYTKSIDRLGIHRMRMSDGPQGIGTKGKSTAYPATVTLAATWNENLAYQYGKALGRDCRARNINVILGPAVNIYRAPMCGRNFEYMGEDPYLTSRICVGYIKGVQDQGVMATVKHFVANNSDYDRNNISNDIDERTLNEIYFPAYKAAIQEAEVGAIMTSYNLMNGIYTTENPWLLKEVLRNQWGFKGLVMSDWGSTHYCVPAARSGLDLEMAGGEKMNPKDMAYYLKTGDVTMDMVDEKVRHILRILIAFGFKDGTEADKSIALDDPQSVETA”, the protein production entry was “failed”. For “MQPIELAELLTSQAAVLTSLVVIGLILCFIGYKIFRVYSAVIGLFIGQLVGIYITINYYENALIVILASAIVGALLFALIDELGLIVTGAAFGYFVGVYLLPEYQVYAFVLAALFALINLFIEKPLTVLITSVIGASAIALAVHMGITGTHIYDILNDPKKVFDAIFSNAYFDLLWFTLVLTGIITQYVTYKEEREEEE”, the protein production result is on record as “failed”. Turning to “MFEFISLDRDGVLYIAAFLVIIRSVSLYIFSKGNNVDKANVNILMLVFFLLFMTASSLSSWPLIYFLALFFVGSIISFTWFTYSGMITPFGSGLTAISTTLLLCLLSYMLSFYETFVEHGFQAIFIAIFLFSIITSIYSFYYLPFSQNSLFYLNFKRNKKVMHIQSVSEVYSPKVTIHLPCYSEPPEIVINTLNSISALDYDNYEVIVIDNNTRDETLWKPVEKHCSMLGEKFRFYHVPVLAGAKAGALNYALKITSSDTELIAVIDADYITEPDFIRRYVKIFKDENVGFVQTSHDYYNHQSSPVMEGAYYFWTLFHKIELPSYTEINAAFTVGTMCILRRNILEKVGGWDETALTEDSELAVRMHAQGYIGYVFADTVGRGLIPTTFSDMKKQQVRWTAGPVQQLLKHWRLYFGFSSENKMTLNQRVMEIRHSTSRIKPVFSLISLHIMVVVSFFLLSGNVYLSIPYEFIVFFLCMLISTFIEKMAYFRLFNCSGILPVFYHGIMARALEWTFIYGVISSLFGFSMKWDRTNKFENSKSIKRAFLASKIEVVMSVFFFLYSFFLLSGNHSGYNDFVFLTGIACLVKGIGFLCALLVASLLENNLRILEAP”, the protein production entry was “failed”.

For “MEIHSERKKRLSLSLLFKIIKDTVWGFIDDSVMRLSASLAYATLFSIIPFLSLLVTVGVFFHMDLANQLYVQLQPIVGPEVTEALRSIIENAENTDSSRSAAFVSLGISILGATTIFAEIQSSLNSIWGIKAVPKKSWLKFIKNRILSFSIILVFAFILLITFTITNIIGELSQKFIFKYPEVADSLVKVVGIIINMSVTTIIFTLIFKILPDAKIKSKDVCIGAVVTTILLLIGQWGISFYIGIANVGTVYGAAAFMVVFVTWIYYSSIIIYTGAEFTKAWANEMGGKIFPDEYAVATKTIEIHEDKPIE”, the protein production result is “failed”. For “MDDGDTADDIMDATYRALCTHGYADLTMQDIADESDKSKAALHYHYDSKHDLLCAFLEYLYDGFVDRIEDPAGETPHERLLSLIDSVLDKPDDGSEEFGTAILEIRAHAPYEPGFRERLTKFDDYLVDELEVILEDGIADGTFKSDLDADETAQFIVTVLTGAATERVTTGRPVKCTRRMLTEYVETHLLDGQQEVTA” the value was “not failed”.
